Data on 7 compounds can be found in patent US7314726B2, “Beta secretase exosite binding peptides and methods for identifying beta secretase modulators” (Bristol-Myers Squibb Company, priority 2002, dated 2008).

A short description of series [1]: Solubility of Bpa-mutated peptides in the competition assay. The format is physicochemical. The conditions noted are these: FIG. 11, Bpa scan; inhibition under determined.
Series [2] concerns the target T1, BACE (Homo sapiens, UniProt P56817). In words: Phage ELISA of phage-displayed peptides on immobilised BACE. The format is binding. Details: The cDNA for the catalytic domain of human BACE (residues 1-460) was PCR-amplified; human IgG1 heavy chain (C, cleaved yes); thrombin cleavage site (C); made in house; host or cells: CHO DG44 cells (stably transfected, secreted). The conditions noted are these: clones from solid phase panning at pH 7.0. The protocol:
Two highly selected and homologous 12 mer phage peptides bound BACE specifically and reproducibly in phage-ELISA tests. Bristol-Myers Squibb fUSE5-based C4C, C6C, 5- and 15 mer libraries, and M13-based C7C libraries, and 7- and 12 mer libraries obtained from New England Biolabs, Beverly, Mass. were panned for three cycles against BACE (produced as described herein in Example 3). BACE was immobilized by coating at 0.5 μg/well in 4 wells of Dynex Immulon 4HBX plates overnight at 4° C. in 0.1M NaHCO3 buffer, pH 9.0. Panning was by standard procedures at room temperature that involved blocking wells with 2% BSA in PBS and elution with 0.1M HCL, pH 2.2. The vector NTI alignment tool and visual inspection of sequences were employed to analyze the selected peptides.
After sequencing approximately 20-50 clones from each library after three cycles of selection, we prepared essentially all possible candidate clones (39 clones in total) for phage-ELISA to obtain direct evidence for affinity to BACE. […] We therefore sequenced additional 12 mer clones to try to find additional candidate clones. […] This […] (SEQ ID NO:20) peptide is homologous to […] (SEQ ID NO:19) and consistent with the specific binding of both those peptides to BACE. The […] (SEQ ID NO:20) peptide and […] (SEQ ID NO:19) peptides were the two most efficiently recovered clones with 13 and 9 copies, respectively. […]
In general terms: An ELISA detects its analyte on a solid surface through an enzyme-linked reagent.
Target sequence in this assay (P56817 46-460 limits assumed): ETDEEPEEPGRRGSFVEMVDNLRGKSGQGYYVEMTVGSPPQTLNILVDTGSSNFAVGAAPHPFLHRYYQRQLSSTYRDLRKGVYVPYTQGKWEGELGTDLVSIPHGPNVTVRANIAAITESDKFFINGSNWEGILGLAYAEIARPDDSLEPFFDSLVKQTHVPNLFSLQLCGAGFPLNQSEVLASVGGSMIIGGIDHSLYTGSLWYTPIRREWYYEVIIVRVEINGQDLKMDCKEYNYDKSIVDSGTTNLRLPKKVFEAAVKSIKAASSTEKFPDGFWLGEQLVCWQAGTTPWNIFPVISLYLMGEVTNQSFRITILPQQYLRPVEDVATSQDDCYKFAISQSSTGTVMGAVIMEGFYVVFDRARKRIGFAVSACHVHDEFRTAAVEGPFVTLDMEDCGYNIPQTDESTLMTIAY

Series [3] concerns the target T1, BACE. The series is described as above. The format is binding. Details: The cDNA for the catalytic domain of human BACE (residues 1-460) was PCR-amplified; human IgG1 heavy chain (C, cleaved yes); thrombin cleavage site (C); made in house; host or cells: CHO DG44 cells (stably transfected, secreted). The note with it: peptides from solution phase panning; tested at pH 5.0.
Target sequence in this assay (P56817 46-460 limits assumed): as above

Series [4] concerns the target T2, catalytic domain of BACE purified from E. coli cells (Homo sapiens, UniProt P56817).
T2 construct: the catalytic domain of BACE purified from E. coli cells; made in house; host or cells: E. coli
The series can be described thus: Binding of labeled EBP to BACE purified from E. coli cells. The note with it: compared with BACE purified from CHO cells. As to the method: Binding of Molecule Y1 to the catalytic domain of BACE purified from E. coli cells was carried out to determine the effect of glycosylation on the EBP binding.

In series [5] the target is T3, catalytic domain of human BACE expressed in a CHO cell line (Homo sapiens, UniProt P56817).
T3 construct: The cDNA for the catalytic domain of human BACE (residues 1-460) was PCR-amplified; human IgG1 heavy chain (C, cleaved yes); thrombin cleavage site (C); made in house; host or cells: CHO DG44 cells (stably transfected, secreted)
T3 sequence (P56817 46-460 limits assumed): as above
The series can be described thus: Fluorescently labeled EBP binding to BACE, fluorescence anisotropy. The note with it: for Kd: pH 4.5 (50 mM acetate), 25° C., 1:1 binding model, read-out: binding constant (Kd) of labeled EBP. As to the method: An assay to evaluate the binding of BACE to EBPs labeled with a fluorescent molecule (for example, but not limited to Alexa488) was developed. This assay uses the catalytic domain of human BACE expressed in a CHO cell line (according to Example 3) and labeled EBPs such as Molecule X shown in FIG. 4. The change in fluorescent anisotropy of the EBP peptide upon binding to BACE is monitored.
Peptides were dissolved in 100% DMSO (dimethyl sulfoxide) at 10 mM concentration, and then diluted 10-fold into deionized water. The concentration of the labeled peptides was determined by their absorbance at 495 nm (ε=71000 cm^−1M^−1). The concentration of selected unlabeled peptides was determined by their Tyr absorbance at 276 nm (ε=1390 cm^−1M^−1 per Tyr residue).
The binding was carried out at pH 7.1 (PBS buffer) and pH 4.5 (50 mM acetate buffer) in the presence of 1% DMSO. Fluorescence anisotropy was measured at 25° C. in an AVIV fluorometer. The excitation and emission wavelengths were set to 495 and 519 nm, respectively. The excitation and emission slit width were 4 and 10 nm, respectively. A concentrated BACE stock was used to titrate a 300 μl solution of 10 nM labeled EBP. The final BACE concentration ranges from 10 to 5000 nM. After the addition of BACE, the solution was mixed for 10 times with a pipettor. The fluorescence anisotropy was averaged over a 5 minute period.
The change in anisotropy was plotted against the BACE concentration (see, for example, FIG. 5). The Kd of the labeled EBP as well as the initial (r0) and final anisotropy (rb) of the labeled EBP were calculated from curve fitting using the program Kaleidagraph. The equation used to fit the binding data is identical to equation 1 in Lai et al., (2000) Arch. Biochem. Biophys. 381:278-284.
On the technique in general: Fluorescence polarisation rises when a labelled molecule tumbles more slowly, as on binding a larger partner.

Series [6] addresses T1, BACE. In words: BACE cleavage assay with MCA-[…](-dnp)-COOH substrate, HPLC analysis. In kind it is biochemical. The note with it: 0.1 nM BACE, 25 μM substrate peptide, 60 minutes at 25° C.; read-out: IC50, inhibition of proteolytic activity of BACE. As to the method:
Molecule Y3 was tested in a BACE cleavage assay using the peptide MCA-[…](-dnp)-COOH (SEQ ID NO:107) as a substrate. The assay was carried out essentially as described in Mallender et al., (2001) Mol. Pharmacol. 59:619-626 and in Marcinkeviciene et al., (2001) J. Biol. Chem. 276: 23790-23794. A concentration of 0.1 nM BACE was incubated with Molecule Y3 at various concentrations for 15 minutes before substrate peptide was added to a final concentration of 25 μM. The reaction was allowed to proceed for 60 minutes at 25° C. before it was stopped by boiling. The reaction mixture was separated on a C18 column using reverse phase HPLC (Waters, Milford, Mass.). The IC50 value was calculated using the Langmuir isotherm equation (Copeland, R. A., Enzymes: A Practical Introduction to Structure, Mechanism, and Data Analysis, (2nd ed), Wiley-VCH, New York, N.Y. (2000)).
Target sequence in this assay (P56817 46-457 limits assumed): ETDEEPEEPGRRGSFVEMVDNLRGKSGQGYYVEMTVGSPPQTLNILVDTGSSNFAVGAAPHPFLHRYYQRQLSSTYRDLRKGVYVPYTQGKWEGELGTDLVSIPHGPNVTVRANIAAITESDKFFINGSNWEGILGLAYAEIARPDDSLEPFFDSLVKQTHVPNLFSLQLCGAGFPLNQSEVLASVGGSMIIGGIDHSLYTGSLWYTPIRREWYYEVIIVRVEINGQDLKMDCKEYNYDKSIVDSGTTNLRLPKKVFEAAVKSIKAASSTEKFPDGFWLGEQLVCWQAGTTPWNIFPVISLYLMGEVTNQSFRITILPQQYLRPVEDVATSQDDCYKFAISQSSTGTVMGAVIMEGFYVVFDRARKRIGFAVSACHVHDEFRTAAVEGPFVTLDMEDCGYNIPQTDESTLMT

Where “and” joins values, the source holds several entries; their conditions need not be identical. Equal entries are not always repeated. Where two headings read alike, the source gives them in different places. Square brackets hold non-standard residues; d marks the D form. Peptide text beside a SMILES is read from it. Bpa = N[C@@H](Cc1ccc(C(=O)c2ccccc2)cc1)C(=O)O; Alexa488 = Alexa Fluor 488 fluorescent label

T2 sequence (P56817 46-457 limits assumed): as above

Consider `CC(=O)N[C@@H](Cc1ccc(O)cc1)C(=O)N1CCC[C@H]1C(=O)N[C@@H](Cc1ccc(O)cc1)C(=O)N[C@@H](Cc1ccccc1)C(=O)N[C@@H](Cc1ccc(C(=O)c2ccccc2)cc1)C(=O)N1CCC[C@H]1C(=O)N[C@@H](CC(C)C)C(N)=O` [I9B] (Ac-YPYF[Bpa]PL-NH2), for which the solubility result in series [1] is reported as “limited solubility”.

`CC[C@H](C)[C@H](NC(=O)[C@H](Cc1ccccc1)NC(=O)[C@H](Cc1ccc(O)cc1)NC(=O)[C@H](Cc1ccc(C(=O)c2ccccc2)cc1)NC(=O)[C@H](Cc1ccc(O)cc1)NC(C)=O)C(=O)N1CCC[C@H]1C(=O)N[C@@H](CC(C)C)C(N)=O` [P6B] (Ac-Y[Bpa]YFIPL-NH2): the solubility result in series [1] is listed as “limited solubility”. Regarding Ac-ALYPYFLPISAK-NH2 [BMS-561877], the “phage ELISA binding to BACE” value at BACE [2] is “specific binding to BACE”. As to ETWPRFIPYHALTQQTLKHQQHT, the “phage ELISA binding to BACE” value with BACE [3] is “strong and specific binding”. As a reminder, the Kd is a measure of binding affinity in units of concentration. In the case of “Molecule Y1: peptide YPYFIPL (BMS-593925) with C-terminal Alexa488 label, FIG. 4 (Ac-YPYFIPL-Alexa488; also: linker between peptide and Alexa488 not given here)”, in series [4], the “binding affinity for E. coli expressed (non-glycosylated) human BACE” value is “the same as that of human BACE purified from CHO cells”. In addition, the “enhancement of affinity in the presence of OM99-2” value in series [5] (in the presence of 10 μM OM99-2) turned out to be 5 fold. In series [5] (listed as Y1), the Kd is 0.058 µM and 0.057 µM. The term IC50 denotes the concentration that inhibits the measured activity by half. For “Molecule Y3: analog of Molecule Y1 with different length of linker between Alexa488 and the peptide (Ac-YPYFIPL-Alexa488; also: linker between peptide and Alexa488 not given here)”, the IC50 with BACE [6] is 0.731 µM. In addition, the equilibrium dissociation constant (Kd) in series [5] amounted to 0.048 µM. As for TAEYESRTARTAPPAPTQHWPFFIRST, the “phage ELISA binding to BACE” value in the series with BACE [3] is “strong and specific binding”.
